From article PMC6858872 (Nature structural & molecular biology, 2019)
Several values for one entry are separate records, joined by “and”; a condition that tells them apart may be missing. Identical values can stand only once. Like-named read-outs stand apart in the source and are kept apart here.

Legend:
SEC = target: the molecule itself; test: SEC
YFP-BiP [1] = target: T1, YFP-BiP (human, UniProt P11021 28-654); test: FRET or BRET
YFP-BiP [2] = target: T1, YFP-BiP; test: FRET or BRET; remark: listed apart in the source
YFP-BiP [3] = target: T1, YFP-BiP; test: FRET or BRET; remark: listed apart in the source

| Binder | stoichiometry N (SEC) | Ki of the high concentration phase (Ki^High) (YFP-BiP [1]) | Ki of the high concentration phase (Ki^High) (YFP-BiP [2]) | Ki of the high concentration phase (Ki^High) (YFP-BiP [3]) |
| --- | --- | --- | --- | --- |
| IRE1 LD (human IRE1 luminal domain, 32-440) (domain or fragment) LLFVSTLDGSLHAVSKRTGSIKWTLKEDPVLQVPTHVEEPAFLPDPNDGSLYTLGSKNNEGLTKLPFTIPELVQASPCRSSDGILYMGKKQDIWYVIDLLTGEKQQTLSSAFADSLCPSTSLLYLGRTEYTITMYDTKTRELRWNATYFDYAASLPEDDVDYKMSHFVSNGDGLVVTVDSESGDVLWIQNYASPVVAFYVWQREGLRKVMHINVAVETLRYLTFMSGEVGRITKWKYPFPKETEAKSKLTPTLYVGKYSTSLYASPSMVHEGVAVVPRGSTLPLLEGPQTDGVTIGDKGECVITPSTDVKFDPGLKSKNKLNYLRNYWLLIGHHETPLSASTKMLERFPNNLPKHRENVIPADSEKKSFEEVINLVDQTSENAPTTVSRDVEEKPAHAPARPEAPVDSM | 2 and 4 |  |  |  |
| CH1 (immunoglobulin fragment, inherently misfolded without CL) (domain or fragment) not shown |  | 4.3 ± 0.4 µM | 0.2 ± 0.01 µM | 5.2 ± 0.6 µM |
